# Test results reported in patent publication US7125658B2, “Small protein that interacts with a ribonucleotide reductase subunit and uses thereof” (The Trustees of Columbia University in the City of New York, priority 1998, dated 2006).
# T1: Recombinant yeast Rnr1 protein (large subunit of ribonucleotide reductase) (yeast (Saccharomyces cerevisiae), UniProt P21524 1-888)
# T1 construct: It is in monomer/dimer/tetramer equilibrium depending on dTTP; also called yeast R1 protein
# T1 sequence (looked up): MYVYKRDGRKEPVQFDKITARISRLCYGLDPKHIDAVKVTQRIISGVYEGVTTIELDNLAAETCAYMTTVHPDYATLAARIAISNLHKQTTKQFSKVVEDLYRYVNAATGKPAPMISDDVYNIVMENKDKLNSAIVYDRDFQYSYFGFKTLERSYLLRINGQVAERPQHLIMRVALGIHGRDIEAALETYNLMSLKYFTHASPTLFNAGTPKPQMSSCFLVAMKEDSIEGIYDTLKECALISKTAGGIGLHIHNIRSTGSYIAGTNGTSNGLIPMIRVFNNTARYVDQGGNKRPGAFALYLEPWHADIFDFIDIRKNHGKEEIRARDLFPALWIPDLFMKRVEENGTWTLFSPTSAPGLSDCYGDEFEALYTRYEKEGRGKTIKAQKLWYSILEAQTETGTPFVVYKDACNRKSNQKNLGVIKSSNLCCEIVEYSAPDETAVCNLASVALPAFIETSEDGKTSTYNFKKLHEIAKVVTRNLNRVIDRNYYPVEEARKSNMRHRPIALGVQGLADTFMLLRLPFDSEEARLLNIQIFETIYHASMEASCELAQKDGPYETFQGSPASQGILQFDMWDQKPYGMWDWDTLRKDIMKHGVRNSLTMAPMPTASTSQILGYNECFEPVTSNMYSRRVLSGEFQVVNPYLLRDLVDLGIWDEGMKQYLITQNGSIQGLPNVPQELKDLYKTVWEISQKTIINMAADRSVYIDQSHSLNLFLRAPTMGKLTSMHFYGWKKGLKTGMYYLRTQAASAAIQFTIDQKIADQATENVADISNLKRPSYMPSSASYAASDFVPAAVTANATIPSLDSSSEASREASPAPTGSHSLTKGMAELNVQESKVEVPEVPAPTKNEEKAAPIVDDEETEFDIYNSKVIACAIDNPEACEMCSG
# T2: yeast Rnr1p (Saccharomyces cerevisiae, UniProt P21524)
# T2 construct: made in house; host or cells: E. coli BL21 (DE3), pET3a
# T2 sequence (P21524 1-888): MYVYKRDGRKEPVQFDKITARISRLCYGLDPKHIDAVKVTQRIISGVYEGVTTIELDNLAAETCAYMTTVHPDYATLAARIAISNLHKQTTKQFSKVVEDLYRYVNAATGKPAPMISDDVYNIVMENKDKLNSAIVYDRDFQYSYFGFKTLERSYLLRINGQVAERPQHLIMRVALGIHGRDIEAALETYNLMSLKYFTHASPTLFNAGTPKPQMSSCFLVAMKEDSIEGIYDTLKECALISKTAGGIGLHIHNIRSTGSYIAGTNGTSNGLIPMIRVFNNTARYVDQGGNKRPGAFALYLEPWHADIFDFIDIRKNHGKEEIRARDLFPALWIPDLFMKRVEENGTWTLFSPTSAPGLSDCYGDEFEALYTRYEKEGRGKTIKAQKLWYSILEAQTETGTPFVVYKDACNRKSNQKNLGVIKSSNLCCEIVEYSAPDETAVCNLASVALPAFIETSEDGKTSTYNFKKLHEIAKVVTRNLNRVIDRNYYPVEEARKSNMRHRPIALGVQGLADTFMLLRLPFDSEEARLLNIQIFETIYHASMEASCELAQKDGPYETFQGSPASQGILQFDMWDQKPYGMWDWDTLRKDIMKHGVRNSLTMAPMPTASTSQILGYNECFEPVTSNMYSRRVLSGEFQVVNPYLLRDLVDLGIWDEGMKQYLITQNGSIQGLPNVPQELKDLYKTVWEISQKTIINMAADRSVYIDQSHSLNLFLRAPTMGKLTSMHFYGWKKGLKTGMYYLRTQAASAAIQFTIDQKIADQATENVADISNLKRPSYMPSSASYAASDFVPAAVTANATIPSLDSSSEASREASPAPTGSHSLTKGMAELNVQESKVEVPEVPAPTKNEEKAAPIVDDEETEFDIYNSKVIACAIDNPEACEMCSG
# What was measured:
# [1] = molecular target: T1, Recombinant yeast Rnr1 protein (large …); test: BIAcore SPR, Sml1p immobilized, Rnr1p injected (0.1-2.5 µM); equilibrium response fitted to one site binding model; equilibrium response fit (GraphPad Prism), directly determined
# Protocol: In this figure, the bulk effect response of around 60 RU has been subtracted.
# BIAcore biosensor analysis. The interaction between Sml1p and either yeast Rnr1p or mouse R1 protein was studied by biosensor analysis using the BIAcore method (Biacore AB). The Sml1 protein was prepared in 10 mM sodium acetate, pH 5.2, at a concentration of 0.44 mg/ml; it was then immobilized on the dextran layer of the sensor chip as described previously for the mouse R2 protein (17). The ligand proteins were equilibrated with running buffer (10 mM Hepes-KOH, pH 7.4, 200 mM potassium acetate, 1 mM EDTA, 5 mM magnesium acetate and 0.05% Surfactant P20 (BIAcore). The interactions were studied at a constant temperature of 22° C. and a constant flow of 5 μl/min. Kinetics for the interaction of Sml1p with yeast Rnr1p was determined by allowing the immobilized Sml1p to interact with increasing concentrations of Rnr1p (18). The resonance unit (RU) is proportional to the mass, and 1 RU corresponds to a surface concentration of 1 pg of protein/mm² of the 100 nm thick dextran layer (19).
# In control experiments, where the same series of Rnr1p solutions passed a sensor chip without immobilized Sml1p, a "bulk effect" gave a response of only about 60 RU. […] Calculating the equilibrium dissociation constant from these rate constants gave a K_0 of about 0.25 µM, which is close to the directly determined K_0.
# yeast Rnr1p = molecular target: T2, yeast Rnr1p; test: sucrose gradient centrifugation of Rnr1p with Sml1p; format: binding; conditions: 500 μg Rnr1p, 90 μg Sml1 protein, 0.1 mM dTTP
# Protocol: FIG. 11 Sucrose gradient centrifugation of yeast Rnr1p in the absence or in the presence of dTTP, with or without Sml1p. Sedimentation (from the right to the left) was performed as described in Materials and Methods. Catalase (s20,w=11.4 S) sedimented in fraction 14 (arrow). Thick line, Rnr1 protein sedimented alone without dTTP or Sml1p. The two peaks represent the dimer (fraction 21) and monomer (fraction 25) positions in the gradient. Hatched line, Rnr1p sedimented in the presence of dTTP. Most of the material now sedimented as tetramers (fraction 5) or dimers (fraction 21). Note that the small peak sedimenting at fraction 26 represents an impurity in the Rnr1p preparation (the band just below the R1 band in the gel insert). The sedimentation of this material is not affected by dTTP. […]
# Sucrose gradient centrifugation. […] Aliquots of each fraction were removed for spectrophotometric assay of catalase activity (20); protein concentration as determined by the Bradford method (21); or SDS-PAGE analysis.
# Interaction between yeast Rnr1 protein and Sml1 protein assayed by sucrose gradient centrifugation. […] To test if Sml1p binding to the Rnr1p might interfere with Rnr1p dimer formation and thereby inhibit RNR activity, we preincubated Rnr1p and Sml1p in the presence of the allosteric effector dTTP; we then analyzed the mixture on a sucrose gradient (FIG. 11). […]
Molecule,Kd [1] [nM],effect on Rnr1p monomer/dimer equilibrium (yeast Rnr1p)
"Recombinant yeast Sml1 protein (other, Immobilized on the BIAcore chip in the biosensor experiments; also called YML058W product) MQNSQDYFYAQNRCQQQQAPSTLRTVTMAEFRRVPLPPMAEVPMLSTQNSMGSSASASASSLEMWEKDLEERLNSIDHDMNNNKFGSGELKSMFNQGKVEEMDF",410,
"Sml1p: 104 amino acid yeast protein encoded by YML058w (SML1) that binds Rnr1 and inhibits ribonucleotide reductase; recombinant, expressed in E. coli (protein) MQNSQDYFYAQNRCQQQQAPSTLRTVTMAEFRRVPLPPMAEVPMLSTQNSMGSSASASASSLEMWEKDLEERLNSIDHDMNNNKFGSGELKSMFNQGKVEEMDF",,did not influence the monomer/dimer equilibrium
